In publication PMC11667226 (Theranostics, 2025):
Marks after values point to notes of the source that are not given here. Non-standard residues stand in square brackets, D forms with d. Residues, ends and D or L forms follow the SMILES beside them. *: point of attachment. X1 = CC1(C)C(=CC=CC=CC=CC2=[N+](CCCCCC(=O)*)c3ccc4ccccc4c3C2(C)C)N(CCCCS(=O)(=O)[O-])c2ccc3ccccc3c21; Cha = N[C@@H](CC1CCCCC1)C(=O)O

Experiment: clinical
Protocol: The blood samples were collected in Vacuette® 3 mL K2E K2EDTA vacutainer blood collection tubes, centrifuged (2500 rpm for 10 min at 4 °C), and the plasma was stored in a -20 °C freezer. Plasma concentrations were measured based on liquid chromatography with tandem mass spectrometric detection (LC-MS/MS) validated according to good laboratory practice (GLP), (LabCorp, Huntingdon, UK). The PK analysis was performed using a non-compartmental analysis method. […] The terminal phase half-life (T½) was calculated using terminal phase rate constant, which resulted from linear regression of the terminal linear portion of the log-concentration vs. time curve.
The primary endpoint was the sensitivity for detection of oral and oropharyngeal cancer verified by histology. The secondary endpoints were divided into efficacy and safety & tolerability. Regarding efficacy, the TBR and intraoperative tumor signal intensity were endpoints. The pharmacokinetics profile determined by a non-compartmental analysis was specified by peak plasma concentration, time of peak plasma concentration, the area under the plasma concentration-time curve from time-zero extrapolated to infinity, and terminal half-life. The safety & tolerability were assessed with adverse event monitoring, laboratory parameters, ECGs, vital signs, and physical examinations.

CC(C)C[C@H](NC(=O)[C@H](Cc1ccc(O)cc1)NC(=O)[C@@H](CCCNC(=N)N)NC(=O)[C@@H](CO)NC(=O)[C@H](Cc1ccccc1)NC(=O)[C@H](CC1CCCCC1)NC(=O)[C@H](CC(=O)O)NC(=O)[C@H](CCC(=O)O)NC(=O)[C@H](CCC(=O)O)NC(=O)CCCCC[N+]1=C(C=CC=CC=CC=C2N(CCCCS(=O)(=O)[O-])c3ccc4ccccc4c3C2(C)C)C(C)(C)c2c1ccc1ccccc21)C(=O)N[C@@H](Cc1c[nH]c2ccccc12)C(=O)N[C@@H](CO)C(=O)O [FG001, ICG-Glu-Glu-AE105] (X1-EED[Cha]F[dS][dR]YLWS-OH; N-terminus and C-terminus assumed)
Extrapolation to AUC from 0 to infinity (AUC0-inf) (all patients with a valid terminal phase): < 25%
Mean half-life of FG001 (human plasma, based on the plasma concentration measurements, all evaluable patients): approximately 12 hours
Maximum concentration (mean (SD)) (human plasma, single 4 mg i.v. dose, n = 4, LC-MS/MS): 577 (373)* ng/mL
Time of peak plasma concentration (human plasma, single i.v. dose, first sample at 1 hr ± 15 min): within the first hour
Tmax (human, plasma, iv): 1 h
Cmax (human, plasma, iv, 16 mg): 4300 ng/mL
Cmax (human, plasma, iv, 36 mg): 8130 ng/mL
half-life (human, plasma, iv, 36 mg): 672 min
Time of peak plasma concentration, one outlier (one patient in the 4 mg group): 12.8 h
